According to the supplement of paper PMC12764529:
± gives the half width of the 95% confidence interval.

Tests used:
[1] = folding stability dG unfold from chymotrypsin proteolysis; higher = more stable
Experimental: (§1)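 Folding stability of de novo designed mini-proteins (<80 aa, no Cys; designed by TrROS, TrMRF, ProteinMPNN and the joint model) was measured by cDNA display proteolysis with trypsin and chymotrypsin. Each protease was used at 11 concentrations in a threefold dilution series plus a no-protease condition. K50 was inferred by Bayesian fitting of sequencing counts, and dG unfold was derived against a sequence-predicted unfolded-state K50 (Tsuboyama et al. method). Sequences shown include variable-length N-terminal GS-type padding (SAGGSAGG...) inside a display construct carrying a PA tag. Rows were kept only if the AF2 dimer inter-PAE was >15, to exclude likely homo-oligomers.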

[2] = folding stability dG unfold (combined trypsin and chymotrypsin); higher = more stable
Experimental: as §1

Sequence	folding stability dG unfold [1] [kcal/mol]	folding stability dG unfold [2] [kcal/mol]
SAGGSAGGSAGGRPIPLDEFRDMPPNWKIEFNNGKEVEIPADDIKKPIDKGDTVRIEPVPSAGGSAGGSAGG [r7_643_TrROS]	0.705 ± 0.024	0.188 ± 0.098
SAGGSAGGSAMIETSVSLDPKNGLRKVTQNVTPEEYLKLTGGPPIPKENKTTVTLTKTLPVPSAGGSAGGSA [r18_327_JUSTAS]	-0.265 ± 0.087	-0.726 ± 0.16
SAGGSAGGSAGEAAIEAAIAANSPDKDATVALPGGETVRLKFTRDPKVPTLLSLDVEREPPRSAGGSAGGSA [r18_202_JUSTAS]	-0.61 ± 0.29	< -1
SAGGGMSPVGTTTSTSPSGVVTTTTTLEAPPPVVTTTTTTTTPVPPPLPPRPPYGPENRARALARAASAGGS [r16_6_JUSTAS]	-0.146 ± 0.39	< -1
SAGGYPAEIEASNVKPEELKKAIEDAPWAKELDVEVEDSSPDGSVKAKFKANSKAEVKRFEKAVKDAFSAGG [r13_580_TrMRF]	-0.448 ± 0.34	< -1
SAGGSAGGSAGGMKPGEVVLIYVERSYYDPEKGPLTPRNARYELLNYKPLPLKPKDPKVLSAGGSAGGSAGG [r7_522_JUSTAS]	-0.3 ± 0.26	-0.516 ± 0.16
SAGGSAKRVAFIGGGPEIEKVIKEAEKNGFEAVPFDGTPDEFLDALKKNFPDVKQIVFPDGKVLDASAGGSA [r15_712_TrMRF]	0.192 ± 0.13	-0.134 ± 0.13
SAGGSASVSYDPTPGPTRRTTTLLETEEVGPNLKRVKTKVTLFPSDGVPTTSTVTELDLVPPPELPSAGGSA [r15_1035_JUSTAS]	0.527 ± 0.057	0.128 ± 0.11
SAGGSAGGSELPPGPYLVTIPADPEPVVAPATFAPDGTVRVRVPEPGEEITIPRDQAEIFPVESAGGSAGGS [r12_782_JUSTAS]	0.944 ± 0.058	-0.0148 ± 0.28
SAGGSAGGSPMPILSASADPGPDGTRTLTLRLGDKTVTFTVPASRPALIPAPADSVISLDPAGSAGGSAGGS [r12_373_TrMRF]	-0.467 ± 0.14	-0.64 ± 0.16
SAGGSAGGSAGGMVRTLDLPNLSEEEIEEIIKKNPNEVYEITFRPPNGPEVTKTIPTHHSAGGSAGGSAGGS [r10_408_JUSTAS]	0.84 ± 0.081	0.524 ± 0.18
SAGGSMPPVVEPATLTLGNGPATQLQRYPGVELVVYRRPPENTILFLSSSGQVLEERKVSPETPVSELSAGG [r13_507_JUSTAS]	-0.318 ± 0.31	< -1
SAGGSETLELTIEIPGLGQPVSARSTSFDPEKGLWTAEMKSPVPGLRRTLTYDPVTGTVSSTTTLLSAGGSA [r2_147_JUSTAS]	0.341 ± 0.13	0.108 ± 0.13
SAGGSAGGSAGPMWRIEVENPNGRTPEIWIPPNMDTPEELVDELKKHFPGLKKVKIEPYPSAGGSAGGSAGG [r11_311_TrROS]	0.184 ± 0.12	-0.391 ± 0.27
SAGGSAGGSAGGPPVLTVTRYPPTPYLTVTLPGGRPVVLPVHPDTPPSDVLRLARELTASAGGSAGGSAGGS [r10_33_TrMRF]	-0.163 ± 0.26	< -1
SAGGSAGGGGGFRVKAEVKHGGKEYPMEILIDPSEGNINIQMPNGKSITLPLNDVKIDEVEPVNSAGGSAGG [r6_185_TrROS]	0.341 ± 0.29	0.101 ± 0.34
SAGGSAGGSAGGWIVRIEHGGKERMFQFDSPEEIKDQIRPMFPNGKKVKVEVMPPDDLKSAGGSAGGSAGGS [r10_1167_TrROS]	-0.0912 ± 0.16	-0.483 ± 0.21
SAGGSAGGSARIRFPNGYEIEVPRKRNPDGNLEITIESRNPDNPEHREMAKKIARDIADELSAGGSAGGSAG [r3_163_TrROS]	-0.0805 ± 0.06	-0.526 ± 0.17
SAGGSAGGSAGDPNYVQVTIRMPMERRNPEDGKWERNPMEITIPFKSKDQADKIAEEIGISAGGSAGGSAGG [r11_984_TrROS]	-0.0109 ± 0.18	-0.375 ± 0.23
SAGGSAGGSAGGSPILIPRPDDYVLVVRIEEPRPLPDGDLAPPRIDVRLMPREEVERLLSAGGSAGGSAGGS [r4_238_TrMRF]	0.992 ± 0.08	0.378 ± 0.12
